According to the RNAGym collection of RNA variant scans (doi:10.1101/gr.219683.116):

B1: mRNA-splicing (parent)
chain: AGUUGCUGCUGGGAGCUCCAGCACAGUGAAAUGGACAGAAGGGCAGAGCAA

Variants of: B1
Assay: exon inclusion enrichment index; higher = more inclusion; WT1 exon 5 minigene, HEK293

Variant	exon inclusion enrichment index
G5A U7C G8A U10C G12U G13C	0.477
G5A U7C G8A U10C C22U A23G	2.69
G5A U7C G8A U10C C22U A23U	1.53
G5A U7C G8A U10C C22U A23C	1.42
G5A U7C G8A U10C A14U	0.895
G5A U7C G8A U10C G11A G12A	0.934
G5A U7C G8A U10C G11A G12C	0.699
G5A U7C G8A U10C G11A G12U	0.486
G5A U7C G8A U10C G13U A14G	0.535
G5A U7C G8A U10C G13U A14U	1.08
G5A U7C G8A U10C G13U A14C	1.41
G5A U7C G8A U10C C44U A45U	1.51
G5A U7C G8A U10C C44U A45C	3.16
G5A U7C G8A U10C C44U A45G	1.53
G5A U7C G8A U10C A37C	3.08
G5A U7C G8A U10C A37U	1.97
G5A U7C G8A U10C A37G	3.3
G5A U7C G8A U10C C19U A20C	1.64
G5A U7C G8A U10C C19U A20G	0.888
G5A U7C G8A U10C C19U A20U	0.734
G5A U7C G8A U10C G34A	1.51

Variant	exon inclusion enrichment index
G5A U7C G8A U10C A31C U32C	3.58
G5A U7C G8A U10C A31C U32A	1.81
G5A U7C G8A U10C A31C U32G	2.85
G5A U7C G8A U10C G26U	2.46
G5A U7C G8A U10C G26A	3.08
G5A U7C G8A U10C G26C	2.46
G5A U7C G8A U10C A47G G48U	0.325
G5A U7C G8A U10C A47G G48C	1.13
G5A U7C G8A U10C A47G G48A	1.37
G5A U7C G8A U10C A47U G48C	1.6
G5A U7C G8A U10C A47U G48A	1.85
G5A U7C G8A U10C A47U G48U	1.85
G5A U7C G8A U10C A20U	2.38
G5A U7C G8A U10C A20C	1.81
G5A U7C G8A U10C A20G	2.79
G5A U7C G8A U10C C16G	1.39
G5A U7C G8A U10C C16U	2.53
G5A U7C G8A U10C C16A	2.46
G5A U7C G8A U10C G33U G34U	0.351
G5A U7C G8A U10C G33U G34C	0.815
G5A U7C G8A U10C G33U G34A	0.441

Variant	exon inclusion enrichment index
G5A U7C G8A U10C G13C A14U	1.45
G5A U7C G8A U10C G13C A14G	1.71
G5A U7C G8A U10C G13C A14C	1.19
G5A U7C G8A U10C G13U	0.0615
G5A U7C G8A U10C G13C	1.1
G5A U7C G8A U10C G13A	2.41
G5A U7C G8A U10C C44G A45C	3.34
G5A U7C G8A U10C C44G A45G	0.315
G5A U7C G8A U10C C44G A45U	1.92
G5A U7C G8A U10C G21A	1.67
G5A U7C G8A U10C G21C	2.25
G5A U7C G8A U10C G21U	1.92
G5A U7C G8A U10C G12A G13A	0.689
G5A U7C G8A U10C G12A G13C	0.711
G5A U7C G8A U10C G12A G13U	0.132
G5A U7C G8A U10C G11U G12A	0.117
G5A U7C G8A U10C G11U G12U	0.337
G5A U7C G8A U10C G11U G12C	0.738
G5A U7C G8A U10C C36U A37U	1.38
G5A U7C G8A U10C C36U A37G	2.16
G5A U7C G8A U10C C36U A37C	1.63

Variant	exon inclusion enrichment index
G5A U7C G8A U10C G28U A29C	1.47
G5A U7C G8A U10C G28U A29U	0.443
G5A U7C G8A U10C G28U A29G	2.07
G5A U7C G8A U10C C44A A45C	3.95
G5A U7C G8A U10C C44A A45U	4.02
G5A U7C G8A U10C C44A A45G	3.75
G5A U7C G8A U10C C24G A25C	3.54
G5A U7C G8A U10C C24G A25G	1.35
G5A U7C G8A U10C C24G A25U	2.8
G5A U7C G8A U10C C24U A25C	3.55
G5A U7C G8A U10C C24U A25G	3.39
G5A U7C G8A U10C C24U A25U	2.36
G5A U7C G8A U10C A39C A40U	1.28
G5A U7C G8A U10C A39C A40G	2.18
G5A U7C G8A U10C A39C A40C	3.03
G5A U7C G8A U10C G33C G34A	1.53
G5A U7C G8A U10C G33C G34C	1.34
G5A U7C G8A U10C G33C G34U	1.72
G5A U7C G8A U10C A40U G41U	1.26
G5A U7C G8A U10C A40U G41A	0.108
G5A U7C G8A U10C A40U G41C	3.14
